{"source": "patent US10760049B2", "about": "“Generation of neural stem cells from undifferentiated human embryonic stem cells” (ES Cell International PTE Ltd., priority 2002, dated 2020)", "key": {"[1]": {"tested_on": "hES cell derived neural progenitors", "experiment": "Directed differentiation of neural progenitors towards a midbrain fate; scoring of TH+ clumps and TH+ neurons", "assay_type": "cell-based, human", "details": "for effect on the proportion of TH+ clumps: added at 10 ng/ml to IBMX, Forskolin, PMA, dopamine and AA", "source_text": "Neurospheres that were generated from noggin treated ES cell colonies as described above (Example 1) were propagated 21-35 days in NPM supplemented with FGF-2 and EGF. At this point the spheres were chopped into small clumps (2000-3000 cells per clump). FGF-2 and EGF were removed from the medium and the progenitors were directed to take a midbrain fate by treatment with various factors for 6-8 days. During treatment with the various factors the clumps were either cultured in suspension or plated on poly-D-lysine and laminin. The factors included. FGF1, FGF8, FGF17 (R&D Systems) at concentrations of 100-200 ng/ml SHH (R&D Systems) at 0.5-1 μg/ml. Other signal transduction inducers: cAMP inducers: IBMX (Sigma, 0.25 mM), forskolin (Sigma 50 μM), PKC inducers PMA (Sigma 200 nM) and dopamine (Sigma 20 μM) were also used. The medium was also supplemented with the survival factors Ascorbic acid (AA) (Sigma) at concentration of 400-800 μM and NT4 (R&D Systems) at concentration of 20 ng/ml. The medium was changed every other day. To induce further differentiation into neurons, the spheres were again disaggregated into small clumps and plated on poly-D-lysine (30-70 kDa. 10 μg/ml, Sigma) and laminin (4 μg/ml, Sigma) and cultured in NPM in the absence of the factors and in the presence of AA with or without NT4 for 5-10 days. Differentiated cells were analysed by indirect immunofluorescence (as described in example 1) for the expression of β-tubulin type III (Sigma, 1:1000-3000) Tyrosine hydroxylase (TH) (Sigma anti mouse monoclonal, 1:250-500 and Pel-Freez anti rabbit polyclonal, 1:50-100) dopamine transporter (DAT;_Chemicon; rabbit polyclobal 1:50-100) and Nurr1 (Santa Cruz, Calif.; rabbit poly clonal 1:100-200). The proportion of clumps of cells that were comprised of a significant number of TH+ cells (>50 cells) was scored. Double immunostaining for TH and β-tubulin type III was used to analyse the percentage of cells within clumps expressing TH from the total number of neurons β-tubulin type III+cells). Multiple confocal microscopy images of consecutive planes through the clump were projected into one image for this analysis (FIG. 14) Ten-fifteen random fields were analysed."}, "[2]": {"tested_on": "human ES cells (HES-1 cell line)", "experiment": "Noggin-directed differentiation of hES cell colonies on feeders; immunophenotype of derived spheres and rosette areas", "assay_type": "cell-based", "procedure": "To derive enriched preparations of neural progenitors, differentiation of human ES cells was directed into neural fate by transfer of undifferentiated hES cell clumps onto fresh feeders and culture in a modified hES cell medium with reduced serum concentration and in the presence of the BMP antagonist noggin. Specifically, human ES cells (HES-1 cell line, Reubinoff et al 2000, PCT/AU99/00990) with a stable normal (46XX) karyotype were cultured on mitomycin C mitotically inactivated mouse embryonic fibroblast feeder layer in gelatine coated tissue culture dishes as previously described (Reubinoff et al., 2000 PCT/AU99/00990 and PCT/AU01/00278). To induce differentiation, at the usual passage, clumps of undifferentiated ES cells were plated on fresh feeders and cultured in the usual hES medium supplemented with 10% serum (instead of 20%) and 500 ng/ml of noggin (R&D systems). Noggin (500 ng/ml) was further added to the medium every other day throughout a 6-8 day culture period (3-4 administrations). After 6-8 days, noggin was omitted and the cells were further cultured in the modified medium with 10% serum for additional 4-6 days. At this time about 12-14 days, about 70% of the colonies differentiated mostly into areas that were comprised of tightly packed small cells with a uniform grey opaque appearance under dark field stereo microscope (FIG. 1a, PCT/AU01/00278, PCT/AU01/00735). Other colonies differentiated into areas with structures that could resemble primitive neural rosettes (FIG. 1b).\nClumps of about 150 cells were mechanically isolated by using the razor-sharp edge of a micro glass pipette or a razor blade from the grey opaque areas and replated in serum-free medium supplemented with human recombinant FGF-2 and EGF. Specifically, the clusters of cells were transferred to plastic tissue culture dishes containing neural progenitors growth medium (NPM) that consisted of DMEM/F12 (1:1), B27 supplementation (1:50), glutamine 2 mM, penicillin 50 u/ml and streptomycin 50 μg/ml (Gibco), and supplemented with 20 ng/ml human recombinant epidermal growth factor (EGF), and 20 ng/ml fibroblast growth factor 2 (FGF2) (R & D Systems, Inc., Minneapolis, Minn.). Under these culture conditions the clumps formed free floating spherical structures within 24 hours and sequential propagation and expansion of the sphere cultures was possible as previously described (Reubinoff at al., 2001, PCT/AU01/00278) for prolonged periods (6 months).\nDuring the initial weeks in culture, the spheres gradually acquired a uniform morphology (FIG. 3 A,B). A detailed analysis of marker expression by the cell within the spheres was conducted at 3-4, 8 and 12 weeks after derivation. The spheres were disaggregated into single cells that were plated, fixed and analysed by fluorescent immunohistochemistry for the expression of the early neural markers N-CAM, A2B5, PSA-NCAM and nestin. A high proportion of the cells expressed these markers (N-CAM 83±4% A2B5 84±4%, nestin 69±6% PSA-NCAM 74±2%) and the level of expression was stable during the 12 weeks period.\nThe phenotype of cells within the areas with structures that could resemble primitive neural rosettes (FIG. 1b) was also analyzed. These areas were mechanically dissected, and disaggregated. The cells were plated on laminin and cultured in NPM for two days.\n(§1) In general, for the immunophenotyping of disaggregated neural progenitor cells and differentiated neurons, fixation with 4% paraformaldehyde for 20 minutes at room temperature was used unless otherwise specified. It was followed by blocking with 5% heat inactivated goat serum (Dako) and permeabilization with 0.2% Triton X (Sigma) in PBS with 0.1% BSA for 30 minutes. Samples were incubated with the primary antibodies at room temperature for one hour. […]"}, "[3]": {"tested_on": "undifferentiated human ES cell clumps", "experiment": "hES cell clumps cultured in suspension in NPM+FGF2 with or without noggin; indirect immunofluorescence for neural and non-neural markers", "assay_type": "cell-based", "details": "for proportion of cells expressing endodermal and mesodermal markers: noggin 350 and 700 ng/ml versus no noggin, then a week of differentiation", "procedure": "In an alternative approach, undifferentiated human ES cell clumps of about 200 cells were transferred into NPM and cultured in suspension in the presence of noggin (350 and 700 ng/ml) for approximately 3 weeks. To further induce neural differentiation, proliferation and prevent the differentiation of neural progenitors the medium was also supplemented with human recombinant FGF-2 (20 ng/ml). LIF (10 ng/ml) was also included in the medium in early experiments. The media was replaced twice a week. Under these culture conditions the clumps of hES cells turned into round spheres within 7 days (FIG. 3 C,D).\nTo evaluate the effect of these culture conditions, we have evaluated the phenotype of cells within clumps following three weeks of culture. We have examined two concentrations of noggin (350 and 700 ng/ml) in comparison to culture in NPM supplemented with FGF2 in the absence of noggin. The clusters were disaggregated into single cells or small clumps that were plated, cultured for 4 hours on laminin, fixed and analysed by indirect immunofluorescence for the expression of the early neural markers nestin, A2B5 and N-CAM. Markers of endoderm (probably extraembryonic; low molecular weight (LMW) cytokeratin and laminin) and mesoderm (muscle specific actin and desmin) were examined after a week of differentiation. Immunofluorescence methods and source of antibodies are described below in section (C).\nTo analyse and differentiate between the effect of NPM supplemented with FGF2 and noggin on the differentiation of the hES cell clusters we have characterized and compared the differentiation of these clusters following culture in three different media (FIG. 5): (a) NPM supplemented with b-FGF and noggin (700 ng/ml), (b) the same medium without noggin and (c) knockout (KO) medium. After three weeks of culture a significant difference in the morphology of the clusters was observed. Clusters that were cultured in KO medium had the typical morphology of embryoid bodies (EBs, FIG. 5c). Clusters that were cultured in NPM and FGF2 were characterized by cystic structures and areas of dense cells resembling neural spheres (FIG. 5b). Clusters that were cultured in the presence of noggin had the typical morphology of neural spheres without cystic structures (FIG. 5a).\nClusters that were cultured in NPM with (FIG. 5a) or without noggin (FIG. 5b) were further cultured for an additional 3 weeks in NPM supplemented with FGF2 in the absence of noggin (FIG. 5).\nTo characterize and compare the phenotype of cells within the clusters following differentiation and propagation at the various culture conditions (FIG. 5), the clusters were disaggregated after 3 weeks in culture into single cells or small clumps that were plated, cultured for 4 hours on laminin, fixed and analysed for the expression of the early neural markers nestin, A2B5, N-CAM, PSA-NCAM and β-tubulin III (FIG. 6). The same analysis was done after additional 3 weeks of culture in NPM supplemented with FGF2 (FIG. 7).\nThe percentage of cells within the clumps that expressed non-neural markers at 3 weeks (FIG. 8) and 6 weeks (FIG. 9) of the same floating cultures as above was analysed. Indirect immuno fluorescence analysis of the expression of non-neural markers was performed following disaggregation of the clumps and one week of differentiation on laminin.\nas §1"}, "[4]": {"tested_on": "undifferentiated human ES cell clumps", "experiment": "RT-PCR of non-neural marker transcripts in noggin treated hES cell clumps", "assay_type": "cell-based", "procedure": "At the RNA level, RT-PCR analysis confirmed that in the noggin treated clumps the expression of the endodermal (probably extraembryonic) marker alpha-fetal protein was reduced/undetectable at 3 weeks. This marker was also undetectable at 6 weeks.\nRT-PCR was performed as previously described (Reubinoff et al., 2001). Primer sequences (forward and reverse) and the length of amplified products were as previously described (Reubinoff et al 2001) for alpha-feto-protein and HNF3a and as follows for keratin 8: […]"}, "[5]": {"details": "spheres derived from noggin treated colonies, 3-4, 8 and 12 weeks after derivation"}, "[6]": {"details": "three weeks in NPM+FGF2+noggin (700 ng/ml)"}}, "data": [{"molecule": "O=C1O[C@H]([C@@H](O)CO)C(O)=C1O", "note": "[ascorbic acid, reference compound]", "values": [{"measurement": "percentage of TH+ neurons from the total number of neurons (β-tubulin type III+ cells)", "setting": "[1]; confocal microscopy, cellular level", "result": 45, "unit": "%"}, {"measurement": "proportion of TH+ clumps (clumps with >50 TH+ cells)", "setting": "[1]; factors for 6-8 days after removal of FGF-2 and EGF, then differentiation on poly-D-lysine and laminin with AA", "result": 35, "unit": "%"}]}, {"molecule": "FGF-1: fibroblast growth factor FGF1 (R&D Systems)", "values": [{"measurement": "effect on the proportion of TH+ clumps", "setting": "[1]", "result": "did not increase"}]}, {"molecule": "FGF-8: fibroblast growth factor FGF8 (R&D Systems) (protein, UniProt P55075 23-233, looked up) Fibroblast growth factor 8: QEGPGRGPALGRELASLFRAGREPQGVSQQHVREQSLVTDQLSRRLIRTYQLYSRTSGKHVQVLANKRINAMAEDGDPFAKLIVETDTFGSRVRVRGAETGLYICMNKKGKLIAKSNGKGKDCVFTEIVLENNYTALQNAKYEGWYMAFTRKGRPRKGSKTRQHQREVHFMKRLPRGHHTTEQSLRFEFLNYPPFTRSLRGSQRTWAPEPR", "values": [{"measurement": "effect on the proportion of TH+ clumps", "setting": "[1]", "result": "did not increase"}]}, {"molecule": "noggin: BMP antagonist noggin (R&D systems) (protein, UniProt Q13253 28-232, looked up) Noggin: QHYLHIRPAPSDNLPLVDLIEHPDPIFDPKEKDLNETLLRSLLGGHYDPGFMATSPPEDRPGGGGGAAGGAEDLAELDQLLRQRPSGAMPSEIKGLEFSEGLAQGKKQRLSKKLRRKLQMWLWSQTFCPVLYAWNDLGSRFWPRYVKVGSCFSKRSCSVPEGMVCKPSKSVHLTVLRWRCQRRGGQRCGWIPIQYPIISECKCSC", "values": [{"measurement": "cells expressing N-CAM and nestin", "setting": "[2]; areas resembling primitive neural rosettes in noggin treated colonies, two days on laminin in NPM", "result": "95-100%"}, {"measurement": "colonies differentiated mostly into areas of tightly packed small cells", "setting": "[2]; noggin 500 ng/ml every other day for 6-8 days, 10% serum, on feeders, scored at about 12-14 days", "result": "about 70%"}, {"measurement": "cells expressing A2B5", "setting": "[2]; [5]", "result": "84±4", "unit": "%"}, {"measurement": "cells expressing N-CAM", "setting": "[2]; [5]", "result": "83±4", "unit": "%"}, {"measurement": "cells expressing PSA-NCAM", "setting": "[2]; [5]", "result": "74±2", "unit": "%"}, {"measurement": "cells expressing nestin", "setting": "[2]; [5]", "result": "69±6", "unit": "%"}, {"measurement": "cells expressing non-neural markers", "setting": "[3]; after additional 3 weeks of culture in NPM+FGF2 (6 weeks)", "result": "undetectable or rare"}, {"measurement": "percentage of cells expressing nestin and A2B5 versus NPM+FGF2 without noggin", "setting": "[3]; noggin 700 ng/ml, three weeks", "result": "slightly higher"}, {"measurement": "proportion of cells expressing endodermal and mesodermal markers", "setting": "[3]; three weeks", "result": "significantly reduced after noggin treatment in a dose dependent manner"}, {"measurement": "proportion of cells expressing endodermal and mesodermal markers", "setting": "[3]; three weeks, listed as Noggin", "result": "reduced in a dose dependent manner"}, {"measurement": "percentage of cells expressing non-neural markers", "setting": "[3]; noggin treated cultures after 3 weeks, one week of differentiation on laminin", "result": "significant reduction"}, {"measurement": "percentage of cells expressing A2B5", "setting": "[3]; [6]", "result": 95.6, "unit": "%"}, {"measurement": "percentage of cells expressing NCAM", "setting": "[3]; [6]", "result": 73, "unit": "%"}, {"measurement": "percentage of cells expressing NCAM", "setting": "[3]; three weeks in NPM+FGF2+noggin, then additional 3 weeks in NPM+FGF2", "result": 93, "unit": "%"}, {"measurement": "expression of endodermal marker alpha-fetal protein (RT-PCR)", "setting": "[4]; 3 weeks", "result": "reduced/undetectable"}, {"measurement": "expression of transcripts of epidermal marker keratin-14 (RT-PCR)", "setting": "[4]; 3 weeks", "result": "significantly reduced"}, {"measurement": "expression of endodermal marker HNF3α (RT-PCR)", "setting": "[4]; 6 weeks", "result": "reduced/undetectable"}, {"measurement": "expression of endodermal marker alpha-fetal protein (RT-PCR)", "setting": "[4]; 6 weeks", "result": "undetectable"}, {"measurement": "expression of transcripts of epidermal marker keratin-14 (RT-PCR)", "setting": "[4]; 6 weeks", "result": "undetectable"}]}]}
